Measured values as given in paper PMC5986765 (Cell Discovery, 2018).
Bridge positions count the residues as written; N and C are the ends. Ends that are not written are not given here.

T1: chicken ASIC1a (cASIC1a) (Gallus gallus, UniProt Q1XA76)
T1 construct: expressed in transfected cells; host or cells: CHO cells, transient transfection, pcDNA3.1/Zeo(+)
T1 sequence (Q1XA76 1-527): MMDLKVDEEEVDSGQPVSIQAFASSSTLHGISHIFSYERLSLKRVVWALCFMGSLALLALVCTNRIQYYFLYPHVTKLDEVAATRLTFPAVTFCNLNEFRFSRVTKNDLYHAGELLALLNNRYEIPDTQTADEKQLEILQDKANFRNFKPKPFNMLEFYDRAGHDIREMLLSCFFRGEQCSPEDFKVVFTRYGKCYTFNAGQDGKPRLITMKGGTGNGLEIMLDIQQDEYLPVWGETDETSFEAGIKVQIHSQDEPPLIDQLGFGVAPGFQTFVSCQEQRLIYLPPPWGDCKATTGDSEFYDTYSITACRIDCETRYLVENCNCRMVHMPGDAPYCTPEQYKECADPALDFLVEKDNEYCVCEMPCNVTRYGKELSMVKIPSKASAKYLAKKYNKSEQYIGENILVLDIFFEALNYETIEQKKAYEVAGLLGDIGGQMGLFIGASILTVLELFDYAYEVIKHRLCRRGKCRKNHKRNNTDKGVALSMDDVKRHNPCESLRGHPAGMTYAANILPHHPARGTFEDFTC

T2: human ASIC1a (hASIC1a) (Homo sapiens, UniProt P78348)
T2 construct: expressed in transfected cells; host or cells: CHO cells
T2 sequence (P78348 1-528): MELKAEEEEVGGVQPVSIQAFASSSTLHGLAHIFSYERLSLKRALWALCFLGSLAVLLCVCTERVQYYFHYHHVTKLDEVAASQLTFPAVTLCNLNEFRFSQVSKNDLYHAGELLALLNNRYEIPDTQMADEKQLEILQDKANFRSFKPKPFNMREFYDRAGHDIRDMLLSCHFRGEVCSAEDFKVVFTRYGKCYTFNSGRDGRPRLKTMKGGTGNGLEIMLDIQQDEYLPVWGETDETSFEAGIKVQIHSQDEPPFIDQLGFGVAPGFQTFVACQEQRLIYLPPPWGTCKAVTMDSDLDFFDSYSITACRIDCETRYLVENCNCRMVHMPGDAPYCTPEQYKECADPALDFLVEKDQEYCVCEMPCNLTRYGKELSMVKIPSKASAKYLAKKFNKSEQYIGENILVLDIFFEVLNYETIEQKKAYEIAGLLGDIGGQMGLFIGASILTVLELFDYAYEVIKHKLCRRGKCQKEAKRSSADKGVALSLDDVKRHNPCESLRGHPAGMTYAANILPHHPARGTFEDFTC

B1: truncated chicken ASIC1a (residues 14-463), cASIC1a^ΔNC (domain or fragment)
chain: GQPVSIQAFASSSTLHGISHIFSYERLSLKRVVWALCFMGSLALLALVCTNRIQYYFLYPHVTKLDEVAATRLTFPAVTFCNLNEFRFSRVTKNDLYHAGELLALLNNRYEIPDTQTADEKQLEILQDKANFRNFKPKPFNMLEFYDRAGHDIREMLLSCFFRGEQCSPEDFKVVFTRYGKCYTFNAGQDGKPRLITMKGGTGNGLEIMLDIQQDEYLPVWGETDETSFEAGIKVQIHSQDEPPLIDQLGFGVAPGFQTFVSCQEQRLIYLPPPWGDCKATTGDSEFYDTYSITACRIDCETRYLVENCNCRMVHMPGDAPYCTPEQYKECADPALDFLVEKDNEYCVCEMPCNVTRYGKELSMVKIPSKASAKYLAKKYNKSEQYIGENILVLDIFFEALNYETIEQKKAYEVAGLLGDIGGQMGLFIGASILTVLELFDYAYEVIKHR
notes: not shown: His8, N-terminal, cleaved; EGFP, N-terminal, cleaved
B2: mambalgin-1 (peptide)
chain: LKCYQHGKVVTCHRDMKFCYHNTGMPFRNLKLILQGCSSSCSETENNKCCSTDRCNK
notes: also called synthetic mambalgin-1; wild-type mambalgin-1

Tests used:
chicken ASIC1a (cASIC1a) = molecular target: T1, chicken ASIC1a (cASIC1a); test: whole-cell patch clamp in CHO cells, inhibition of chicken ASIC1a; assay type: cell-based; conditions: for effect of mambalgin-1 point mutants on wild-type cASIC1a: 500 nM, means ± S.E., t-test versus WT, n = 4–13, bar graph Fig. 3e, values not given
From the text: (§1) Fig. 1 Chemical synthesis and bioactivity analysis of mambalgin-1. a Synthetic route of mambalgin-1 and its mutants. b Synthetic mambalgin-1 inhibits recombinant human and chicken ASIC1a (hASIC1a and cASIC1a) channels in CHO cells. After two stable records of acid currents that were elicited by a pH drop from 7.4 to 6.0 for 4 s, synthetic mambalgin-1 was applied at pH 7.4 for 30 s followed by another application during a 4spH drop to 6.0. c Concentration–response curve showing the inhibition of hASIC1a and cASIC1a channels expressed in CHO cells (n = 3–14) by synthetic wild-type mambalgin-1
The coding sequence for wild-type cASIC1a was sub-cloned into the pcDNA3.1/Zeo( + ) vector. All site-directed mutations were generated with overlap PCR and inserted into pcDNA3.1/Zeo(+). The mutants were sequenced to verify that no unwanted mutations had been introduced. Chinese hamster ovary (CHO) cells were cultured in DMEM/F12 medium (Gibco) supplemented with 10% fetal bovine serum (FBS), 100 U/mL penicillin, and 100 U/mL streptomycin at 37 °C in a 5% CO2 incubator. The CHO cells were transferred to 24-well plates for transfection. When the CHO cells reached 90% confluence, they were transfected with 0.6 μg of plasmid encoding EGFP and 0.8 μg of plasmid encoding wild-type or mutant cASIC1a using Lipofectamine 2000 (Invitrogen, USA). After incubation for 5 h, the cells were transferred to poly-L-lysine (Sigma)-coated slides for culture for another 24–48 h in fresh medium. They were then used for the electrophysiological analysis.
For the whole-cell recordings, the bath solution contained 150 mM NaCl, 4 mM KCl, 2 mM CaCl2, 1 mM MgCl2, and 10 mM HEPES (pH 7.4, ~308 mOsm). For acidic solution below pH 6.0, HEPES was replaced by 10 mM MES to buffer solutions. The electrodes were pulled from thick-walled borosilicate glass capillaries with filaments (1.5 mm diameter; Sutter Instruments) on a four-stage puller (P-1000; Sutter, USA) and had resistances of 2–5 MΩ when filled with intracellular solution containing 140 mM KCl, 10 mM NaCl, 5 mM EGTA, 10 mM HEPES, (pH 7.4, ~297 mOsm). All chemicals were obtained from Sigma. The experiments were performed at room temperature with an EPC-10 amplifier (HEKA Electronic) with the data acquisition software PatchMaster. Membrane potential was held at −70 mV in all experiments. Acid-induced currents were recorded by rapidly exchanging local solution from pH 7.4 to acidic pH through a Y-tube perfusion system. Toxins were applied 30 s before the pH decreased and persisted during low pH application. Channels were activated by acid perfusion at least every 2 min to allow for a complete recovery of the channels from desensitization. Recordings in which access resistance or capacitance changed by 10% during the experiment were excluded from data analysis. Mambalgin-1 was added when the currents were stable.
The data were analyzed with Clampfit and SigmaPlot. The dose–response curves used to determine the IC50 values were fitted using the Hill equation: y = 1 + (Imax−1)/(1 + (IC50/x)^h), where y represents the normalized current, Imax represents the control current of ASIC1 detected in each set of experiments; x is the toxin concentration, h is the Hill coefficient, and IC50 is the half-maximal concentration. The results are presented as the means ± standard errors (SE), and n is the number of experiments.

mice = conditions: cited from earlier work
From the text: Mambalgin-1, a toxin isolated from black mamba venom, is a disulfide-rich polypeptide consisting of 57 amino acids and belongs to the family of three-finger toxins[31],[38].

human ASIC1a (hASIC1a) = molecular target: T2, human ASIC1a (hASIC1a); test: whole-cell patch clamp in CHO cells, inhibition of human ASIC1a; assay type: cell-based; conditions: synthetic mambalgin-1, whole-cell recording at −70 mV, pH drop from 7.4 to 6.0 for 4 s, toxin applied 30 s before at pH 7.4 and during acid, room temperature, Hill fit, mean ± SE, n = 3–14
From the text: as §1
The coding sequence for wild-type cASIC1a was sub-cloned into the pcDNA3.1/Zeo( + ) vector. […]
For the whole-cell recordings, the bath solution contained 150 mM NaCl, 4 mM KCl, 2 mM CaCl2, 1 mM MgCl2, and 10 mM HEPES (pH 7.4, ~308 mOsm). […] Acid-induced currents were recorded by rapidly exchanging local solution from pH 7.4 to acidic pH through a Y-tube perfusion system. […]
The data were analyzed with Clampfit and SigmaPlot. The dose–response curves used to determine the IC50 values were fitted using the Hill equation: y = 1 + (Imax−1)/(1 + (IC50/x)^h), where y represents the normalized current, Imax represents the control current of ASIC1 detected in each set of experiments; x is the toxin concentration, h is the Hill coefficient, and IC50 is the half-maximal concentration. […]

ASIC1a = conditions: cited from earlier work
From the text: Mambalgin-1 can bind to and stabilize ASICs in a physiologically relevant closed-channel conformation, but the underlying binding and inhibition mechanism remains elusive. […] Previously, a docked structure of the cASIC1a–mambalgin-1 complex was reported[23],[24], following the crystal structure of the cASIC1a–PcTx1 complex. Mambalgin-1 was predicted to insert into the acidic pocket (also known as the acid-sensing pocket) inside t ...

[1] = molecular target: the molecule itself; test: cryo-EM structure; […] 5.7 Å overall map, 5.4 Å map of the extracellular part; poly-alanine model by rigid-body fitting of crystal structures
[2] = molecular target: B1; test: cryo-EM structure; conditions: both partners purified

For “F27A: mutation of mambalgin-1 in the Finger II region (LKCYQHGKVVTCHRDMKFCYHNTGMPARNLKLILQGCSSSCSETENNKCCSTDRCNK; disulfide (positions not given here); ends not checked; UniProt P0DKR6 22-78, looked up, variant F27A)”, the “effect of mambalgin-1 point mutants on wild-type cASIC1a” value (from here on “effect of mambalgin-1 point mutants”) (chicken ASIC1a (cASIC1a)) was “perturbed the inhibitory effects of the cASIC1a channel”.

In the case of “H6A: mutation of mambalgin-1 in the Finger I region (LKCYQAGKVVTCHRDMKFCYHNTGMPFRNLKLILQGCSSSCSETENNKCCSTDRCNK; disulfide (positions not given here); ends not checked; UniProt P0DKR6 22-78, looked up, variant H6A)”, the “effect of mambalgin-1 point mutants” value (chicken ASIC1a (cASIC1a)) is reported as “perturbed the inhibitory effects of the cASIC1a channel”.

In the case of “K8A: mutation of mambalgin-1 in the Finger I region (LKCYQHGAVVTCHRDMKFCYHNTGMPFRNLKLILQGCSSSCSETENNKCCSTDRCNK; disulfide (positions not given here); ends not checked; UniProt P0DKR6 22-78, looked up, variant K8A)”, the “effect of mambalgin-1 point mutants” value (chicken ASIC1a (cASIC1a)) is reported as “perturbed the inhibitory effects of the cASIC1a channel”.

For “LKCYQHGKVVTCHRDMKFCYHNTGMPFRNLKLILQGCSSSCSETENNKCCSTDRCNK-NH2 (disulfide 3-19, 12-37, 41-49, 50-55) [mambalgin-1]”, the “adverse side effects relative to traditional opioid drugs” value (mice) is listed as “fewer adverse side effects than traditional opioid drugs”, the IC50 (human ASIC1a (hASIC1a)) is listed as 197 ± 18.7 nM and the IC50 (chicken ASIC1a (cASIC1a); synthetic mambalgin-1, whole-cell recording at −70 mV, pH drop from 7.4 to 6.0 for 4 s, toxin applied 30 s before at pH 7.4 and during acid, room temperature, Hill fit, mean ± SE, n = 3–14) is listed as 124 ± 20.3 nM.

For “PcTx1 (EDCIPKWKGCVNRHGDCCEGLECWKRRRSFEVCVPKTPKT; ends and bridges not checked; cysteine pairing not given here; UniProt P60514 1-40, looked up)”, the “channel states bound, PcTx1” value (ASIC1a) is given as “binds tightly to the open and desensitized states of ASIC1a”.

For “Q5A: mutation of mambalgin-1 in the Finger I region (LKCYAHGKVVTCHRDMKFCYHNTGMPFRNLKLILQGCSSSCSETENNKCCSTDRCNK; disulfide (positions not given here); ends not checked; UniProt P0DKR6 22-78, looked up, variant Q5A)”, the “effect of mambalgin-1 point mutants” value (chicken ASIC1a (cASIC1a)) was “perturbed the inhibitory effects of the cASIC1a channel”.

In the case of “R28A: mutation of mambalgin-1 in the Finger II region (LKCYQHGKVVTCHRDMKFCYHNTGMPFANLKLILQGCSSSCSETENNKCCSTDRCNK; disulfide (positions not given here); ends not checked; UniProt P0DKR6 22-78, looked up, variant R28A)”, the “effect of mambalgin-1 point mutants” value (chicken ASIC1a (cASIC1a)) is reported as “perturbed the inhibitory effects of the cASIC1a channel”.

For B1, the “stoichiometry N” value [1] was 3.

With B2 the “stoichiometry N” value [2] was 3 mambalgin-1 per cASIC1a trimer.
